# Results from publication PMC10786891, “Massively parallel profiling of RNA-targeting CRISPR-Cas13d”.
# Numbering of substitutions follows the chain as printed. Names may count otherwise.
# T1: EsCas13d, nuclease-dead (Eubacterium siraeum, UniProt B0MS50, R295A;H300A;R849A;H854A)
# T1 sequence: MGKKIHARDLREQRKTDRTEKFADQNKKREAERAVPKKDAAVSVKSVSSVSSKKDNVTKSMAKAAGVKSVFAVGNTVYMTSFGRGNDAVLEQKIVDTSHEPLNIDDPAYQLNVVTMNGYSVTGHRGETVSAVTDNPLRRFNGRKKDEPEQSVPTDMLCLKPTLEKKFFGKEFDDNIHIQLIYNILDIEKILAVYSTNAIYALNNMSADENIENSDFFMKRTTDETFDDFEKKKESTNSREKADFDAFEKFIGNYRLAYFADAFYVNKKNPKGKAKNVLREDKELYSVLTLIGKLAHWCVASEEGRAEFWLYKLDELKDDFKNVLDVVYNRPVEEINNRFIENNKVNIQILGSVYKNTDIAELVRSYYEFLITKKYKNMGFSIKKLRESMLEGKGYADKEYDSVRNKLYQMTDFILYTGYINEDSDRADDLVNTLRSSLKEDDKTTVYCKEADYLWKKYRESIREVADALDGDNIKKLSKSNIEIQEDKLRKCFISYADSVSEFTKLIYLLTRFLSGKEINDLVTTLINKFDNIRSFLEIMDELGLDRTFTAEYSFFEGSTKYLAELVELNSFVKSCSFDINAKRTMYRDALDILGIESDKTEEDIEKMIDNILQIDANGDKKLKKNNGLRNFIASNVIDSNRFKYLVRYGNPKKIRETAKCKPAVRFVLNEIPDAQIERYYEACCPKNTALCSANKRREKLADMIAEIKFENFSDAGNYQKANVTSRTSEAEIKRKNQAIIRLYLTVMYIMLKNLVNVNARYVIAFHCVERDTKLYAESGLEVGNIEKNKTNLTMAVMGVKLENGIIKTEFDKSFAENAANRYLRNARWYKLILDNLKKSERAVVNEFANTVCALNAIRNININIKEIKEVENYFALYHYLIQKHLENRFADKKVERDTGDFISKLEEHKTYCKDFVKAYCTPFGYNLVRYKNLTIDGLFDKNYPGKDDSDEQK
# B1: target 1 A1U,C2G (mixed)
# RNA 1: CACCCGUGCAAAAAUGCAGGGGUCUAAAACUGAGCGGAUAACCUCUCUAUGG
# RNA 2: GGGAAUGGAUCCACAUCUACGAAUUCGUACCAUAGAGAGGUUAUCCGCUGUCCGAGAUCGGAAGAGCACACGU
# B2: target 1 insC 3' of 17,insC 3' of 15 (mixed)
# RNA 1: B1 RNA 1
# RNA 2: GGGAAUGGAUCCACAUCUACGAAUUCGUACCAUAGCAGCAGGUUAUCCGCUCACCGAGAUCGGAAGAGCACACGU
# B3: target 1 insU 3' of 2,insA 3' of 2 (mixed)
# RNA 1: B1 RNA 1
# RNA 2: GGGAAUGGAUCCACAUCUACGAAUUCGUACCAUAGAGAGGUUAUCCGCUCUAACCGAGAUCGGAAGAGCACACGU
# B4: target 1 insC 3' of 8,insG 3' of 8 (mixed)
# RNA 1: B1 RNA 1
# RNA 2: B3 RNA 2 with C46G, G47C, U49G, A52C
# B5: target 2 MT 5'PFS CUG 3'PFS UGU (mixed)
# RNA 1: CACCCGUGCAAAAUUGCAGGGGUCUAAAACCUUCUCCAAAUUGUUUCAUCCU
# RNA 2: GGGAAUGGAUCCACAUCUACGAAUUCCUGAGGAUGAAACAAUUUGGAGAAGUGUAGAUCGGAAGAGCACACGU
# B6: target 2 MT 5'PFS AUG 3'PFS CAU (mixed)
# RNA 1: B5 RNA 1
# RNA 2: B5 RNA 2 with C27A, U52C, G53A
# B7: target 2 MT 5'PFS AAU 3'PFS CAA (mixed)
# RNA 1: B5 RNA 1
# RNA 2: B5 RNA 2 with C27A, U28A, G29U, U52C, G53A, U54A
# B8: target 2 MT 5'PFS GAA 3'PFS AGG (mixed)
# RNA 1: B5 RNA 1
# RNA 2: B5 RNA 2 with C27G, U28A, G29A, U52A, U54G
# B9: target 2 MT 5'PFS AGC 3'PFS CCG (mixed)
# RNA 1: B5 RNA 1
# RNA 2: B5 RNA 2 with C27A, U28G, G29C, U52C, G53C, U54G
# B10: target 2 MT 5'PFS AAU 3'PFS CAC (mixed)
# RNA 1: B5 RNA 1
# RNA 2: B5 RNA 2 with C27A, U28A, G29U, U52C, G53A, U54C
# B11: target 2 MT 5'PFS UCG 3'PFS CCG (mixed)
# RNA 1: B5 RNA 1
# RNA 2: B5 RNA 2 with C27U, U28C, U52C, G53C, U54G
# B12: target 2 MT 5'PFS GCG 3'PFS UCC (mixed)
# RNA 1: B5 RNA 1
# RNA 2: B5 RNA 2 with C27G, U28C, G53C, U54C
# B13: target 2 MT 5'PFS AAA 3'PFS UUU (mixed)
# RNA 1: B5 RNA 1
# RNA 2: B5 RNA 2 with C27A, U28A, G29A, G53U
# B14: target 2 MT 5'PFS AAA 3'PFS UUA (mixed)
# RNA 1: B5 RNA 1
# RNA 2: B5 RNA 2 with C27A, U28A, G29A, G53U, U54A
# B15: target 2 MT 5'PFS ACU 3'PFS ACG (mixed)
# RNA 1: B5 RNA 1
# RNA 2: B5 RNA 2 with C27A, U28C, G29U, U52A, G53C, U54G
# B16: target 2 MT 5'PFS UAG 3'PFS CCC (mixed)
# RNA 1: B5 RNA 1
# RNA 2: B5 RNA 2 with C27U, U28A, U52C, G53C, U54C
# B17: target 2 MT 5'PFS GGG 3'PFS UCU (mixed)
# RNA 1: B5 RNA 1
# RNA 2: B5 RNA 2 with C27G, U28G, G53C
# B18: target 2 MT 5'PFS GAA 3'PFS AGC (mixed)
# RNA 1: B5 RNA 1
# RNA 2: B5 RNA 2 with C27G, U28A, G29A, U52A, U54C
# B19: target 2 MT 5'PFS GUU 3'PFS CCG (mixed)
# RNA 1: B5 RNA 1
# RNA 2: B5 RNA 2 with C27G, G29U, U52C, G53C, U54G
# B20: target 2 MT 5'PFS AUG 3'PFS CAA (mixed)
# RNA 1: B5 RNA 1
# RNA 2: B5 RNA 2 with C27A, U52C, G53A, U54A
# B21: target 2 MT 5'PFS ACU 3'PFS ACU (mixed)
# RNA 1: B5 RNA 1
# RNA 2: B5 RNA 2 with C27A, U28C, G29U, U52A, G53C
# B22: target 2 MT 5'PFS CCG 3'PFS CCU (mixed)
# RNA 1: B5 RNA 1
# RNA 2: B5 RNA 2 with U28C, U52C, G53C
# B23: target 2 MT 5'PFS GUU 3'PFS CCA (mixed)
# RNA 1: B5 RNA 1
# RNA 2: B5 RNA 2 with C27G, G29U, U52C, G53C, U54A
# B24: target 2 MT 5'PFS GAA 3'PFS AGU (mixed)
# RNA 1: B5 RNA 1
# RNA 2: B5 RNA 2 with C27G, U28A, G29A, U52A
# B25: target 2 MT 5'PFS ACU 3'PFS ACA (mixed)
# RNA 1: B5 RNA 1
# RNA 2: B5 RNA 2 with C27A, U28C, G29U, U52A, G53C, U54A
# B26: target 2 MT 5'PFS AUU 3'PFS UCG (mixed)
# RNA 1: B5 RNA 1
# RNA 2: B5 RNA 2 with C27A, G29U, G53C, U54G
# B27: target 2 MT 5'PFS ACG 3'PFS CCG (mixed)
# RNA 1: B5 RNA 1
# RNA 2: B5 RNA 2 with C27A, U28C, U52C, G53C, U54G
# B28: target 2 MT 5'PFS AGC 3'PFS CCA (mixed)
# RNA 1: B5 RNA 1
# RNA 2: B5 RNA 2 with C27A, U28G, G29C, U52C, G53C, U54A
# B29: target 2 MT 5'PFS GUA 3'PFS AUU (mixed)
# RNA 1: B5 RNA 1
# RNA 2: B5 RNA 2 with C27G, G29A, U52A, G53U
# B30: target 2 MT 5'PFS GCG 3'PFS UCA (mixed)
# RNA 1: B5 RNA 1
# RNA 2: B5 RNA 2 with C27G, U28C, G53C, U54A
# B31: target 2 MT 5'PFS ACU 3'PFS ACC (mixed)
# RNA 1: B5 RNA 1
# RNA 2: B5 RNA 2 with C27A, U28C, G29U, U52A, G53C, U54C
# B32: target 2 MT 5'PFS AAU 3'PFS CAU (mixed)
# RNA 1: B5 RNA 1
# RNA 2: B5 RNA 2 with C27A, U28A, G29U, U52C, G53A
# B33: target 2 MT 5'PFS GAA 3'PFS AGA (mixed)
# RNA 1: B5 RNA 1
# RNA 2: B5 RNA 2 with C27G, U28A, G29A, U52A, U54A
# B34: target 2 MT 5'PFS CCG 3'PFS CCC (mixed)
# RNA 1: B5 RNA 1
# RNA 2: B5 RNA 2 with U28C, U52C, G53C, U54C
# B35: target 2 MT 5'PFS GCG 3'PFS UCG (mixed)
# RNA 1: B5 RNA 1
# RNA 2: B5 RNA 2 with C27G, U28C, G53C, U54G
# B36: target 2 MT 5'PFS CUG 3'PFS UGC (mixed)
# RNA 1: B5 RNA 1
# RNA 2: B5 RNA 2 with U54C
# B37: target 2 MT 5'PFS ACG 3'PFS CCA (mixed)
# RNA 1: B5 RNA 1
# RNA 2: B5 RNA 2 with C27A, U28C, U52C, G53C, U54A
# B38: target 2 MT 5'PFS AUU 3'PFS CGU (mixed)
# RNA 1: B5 RNA 1
# RNA 2: B5 RNA 2 with C27A, G29U, U52C
# Target: T1, EsCas13d, nuclease-dead
# Experiment: crRNA (strand 1, pre-loaded); Mg2+; 40 mM Tris-HCl pH 7.5, 150 mM NaCl, 6 mM MgCl2, 1 mM DTT, 0.1% Tween-20, 0.2 mg/ml BSA; 25 C; 10 min per concentration, then washed
# Details: tags: His6-TwinStrep-SUMO cleaved; N-terminal SNAP kept (SNAP-Surface 488); label: 3' end held by stalled T7 RNA polymerase
row,Binder,Kd
1,B1,9.2 ± 0.8 nM
2,B2,38 ± 6 nM
3,B3,10.9 ± 0.5 nM
4,B4,10.6 ± 0.5 nM
5,B5,3.72 ± 0.32 nM
6,B6,7.6 ± 0.8 nM
7,B7,4.3 ± 0.7 nM
8,B8,6.9 ± 0.7 nM
9,B9,9.3 ± 1 nM
10,B10,5.2 ± 1 nM
11,B11,90 ± 40 nM
12,B12,30 ± 5 nM
13,B13,23 ± 10 nM
14,B14,5.6 ± 1.5 nM
15,B15,9.5 ± 2.5 nM
16,B16,24 ± 9 nM
17,B17,12.1 ± 0.8 nM
18,B18,6.3 ± 1.1 nM
19,B19,14.3 ± 1.2 nM

row,Binder,Kd
1,B20,9 ± 1.4 nM
2,B21,7.3 ± 1.3 nM
3,B22,8.4 ± 1.6 nM
4,B23,~90 nM
5,B24,15.3 ± 2.4 nM
6,B25,4.2 ± 0.7 nM
7,B26,7.8 ± 0.7 nM
8,B27,9.9 ± 1.5 nM
9,B28,78 ± 32 nM
10,B29,6.8 ± 0.5 nM
11,B30,~37 nM
12,B31,9.3 ± 2.2 nM
13,B32,3 ± 0.6 nM
14,B33,5.4 ± 0.9 nM
15,B34,3.1 ± 0.5 nM
16,B35,20 ± 4 nM
17,B36,2.56 ± 0.25 nM
18,B37,19 ± 7 nM
19,B38,6.9 ± 0.9 nM
